This note sets out measurements from paper PMC6779754, “Brain-specific homeobox Bsx specifies identity of pineal gland between serially homologous photoreceptive organs in zebrafish”.

Data set [1] has as its target T1, GST-Bsx (zebrafish, UniProt Q6R3Q6 1-227). Briefly: competition; competitor vs BSXRE probe (EMSA); EMSA: DIG Gel Shift Kit (Roche) per manufacturer, 2.0 pmol GST-Bsx with 32 fmol DIG-oligonucleotide or 8 fmol DIG-147bp probe; buffer, pH and temperature not stated. Particulars: protein: recombinant; tags: N-terminal GST (pGEX-5X-1); annealed synthetic oligonucleotides. A general note: A gel shift assay detects complexes by their altered migration in electrophoresis.

Data set [2] deals with T1, GST-Bsx. Briefly: EMSA; EMSA: DIG Gel Shift Kit (Roche) per manufacturer, 2.0 pmol GST-Bsx with 32 fmol DIG-oligonucleotide or 8 fmol DIG-147bp probe; buffer, pH and temperature not stated. Particulars: protein: recombinant, tags: N-terminal GST (pGEX-5X-1), label: DIG, annealed synthetic oligonucleotides.

Numbering of substitutions follows the chain as printed.

T1 sequence (Q6R3Q6 whole entry): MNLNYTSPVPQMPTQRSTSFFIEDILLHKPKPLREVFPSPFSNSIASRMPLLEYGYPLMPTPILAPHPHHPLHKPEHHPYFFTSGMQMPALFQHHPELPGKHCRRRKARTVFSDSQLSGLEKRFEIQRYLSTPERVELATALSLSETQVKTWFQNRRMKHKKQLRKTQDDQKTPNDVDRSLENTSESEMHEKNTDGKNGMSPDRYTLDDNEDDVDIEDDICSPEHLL

B1: P3 competitor (dsDNA)
DNA 1: GAATTCGATCTCCTGTAATCTGCCTAAATCAAGCTT
DNA 2: AAGCTTGATTTAGGCAGATTACAGGAGATCGAATTC
Take B1: the binding result in data set [1] is reported as “binds”.

B2: D4 competitor (dsDNA)
DNA 1: GAATTCGATTCTGATAATCTGTGTGTGATCAAGCTT
DNA 2: AAGCTTGATCACACACAGATTATCAGAATCGAATTC
For B2, the binding result in data set [1] is given as “binds”.

B3: D2 competitor (dsDNA)
DNA 1: GAATTCGATTGTTTTTAATAAAGATTTATCAAGCTT
DNA 2: AAGCTTGATAAATCTTTATTAAAAACAATCGAATTC
Take B3: the binding result in data set [1] is on record as “binds”.

B4: BSXRE probe (dsDNA)
DNA 1: GAATTCGATGGCGCTAATCGGTGGGGGATCAAGCTT
DNA 2: AAGCTTCATCCCCCACCGATTAGCGCCATCGAATTC
Consider B4, for which the binding result in data set [2] (36-mer) is reported as “binds”.

B5: BSXRE-mut probe (dsDNA)
DNA 1: B4 DNA 1 with A17C, T18G, C19A, G20T
DNA 2: B4 DNA 2 with C17A, G18T, A19C, T20G
In the case of B5, in data set [2], the binding result was “no binding”.

B6: D3 competitor (dsDNA)
DNA 1: GAATTCGATAGATTTAATATTTCAGTCATCAAGCTT
DNA 2: AAGCTTGATGACTGAAATATTAAATCTATCGAATTC
As for B6, the binding result in data set [1] is “binds”.
